In patent US20090258344:

Tests used:
[1] = molecular target: GST-tag fusion of the GTPase Cdc42
[2] = molecular target: GST-tag fusion of the GTPase RhoA

B1: bacterially expressed Histidine tag fusion of KIAA0861 DH-PH domain protein (protein)
chain: PRRRIIRDLLETEEIYIKEIKSIIDGYITPMDFIWLKHLIPDVLQNNKDFLFGNIRELYEFHNRTFLKELEKCAENPELLAHCFLKRKEDLQIYFKYHKNLPRARAIWQECQDCAYFGVCQRQLDHNLPLFKYLKGPSQRLIKYQMLLKGLLDFESPEDMEIDPGELGGSAKDGPKRTKDSAFSTELQQALAVIEDLIKSCELAVDLAAVTECPDDIGKLGKLLLHGPFSVWTIHKDRYKMKDLIRFKPSQRQIYLFERGIVFCKIRMEPGDQGLSPHYSFKKTMKLMTLSIRQLGRGSHRKFEIASRNGLEKYILQAASKEIRDCWFSEISKLLM
In the case of B1, the “N-methylanthraniloyl(mant)-GTP incorporation into Rho GTPase, relative fluorescence (guanine nucleotide exchange assay)” value [1] is reported as “KIAA0861 and DBS DH-PH domain proteins are active in exchanging guanine nucleotide from the GST-tag fusions of the GTPases, RhoA and Cdc42” and the “N-methylanthraniloyl(mant)-GTP incorporation into Rho GTPase, relative fluorescence (guanine nucleotide exchange assay)” value [2] is reported as “KIAA0861 and DBS DH-PH domain proteins are active in exchanging guanine nucleotide from the GST-tag fusions of the GTPases, RhoA and Cdc42”.

B2: bacterially expressed Histidine tag fusion of Dbs DH-PH domain protein (protein)
chain: LRRHVMSELLDTERAYVEELLCVLEGYAAEMDNPLMAHLLSTGLHNKKDVLFGNMEEIYHFHNRIFLRELENYTDCPELVGRCFLERMEDFQIYEKYCQNKPRSESLWRQCSDCPFFQECQRKLDHKLSLDSYLLKPVQRITKYQLLLKEMLKYSRNCEGAEDLQEALSSILGILKAVNDSMHLIAITGYDGNLGDLGKLLMQGSFSVWTDHKRGHTKVKELARFKPMQRHLFLHEKAVLFCKKREENGEGYEKAPSYSYKQSLNMAAVGITENVKGDAKKFEIWYNAREEVYIVQAPTPEIKAAWVNEIRKVLT
With B2 the “N-methylanthraniloyl(mant)-GTP incorporation into Rho GTPase, relative fluorescence (guanine nucleotide exchange assay)” value [1] was “KIAA0861 and DBS DH-PH domain proteins are active in exchanging guanine nucleotide from the GST-tag fusions of the GTPases, RhoA and Cdc42” and the “N-methylanthraniloyl(mant)-GTP incorporation into Rho GTPase, relative fluorescence (guanine nucleotide exchange assay)” value [2] was “KIAA0861 and DBS DH-PH domain proteins are active in exchanging guanine nucleotide from the GST-tag fusions of the GTPases, RhoA and Cdc42”.
